B1: Hamartin (Homo sapiens), Q92574 (parent)
chain: MAQQANVGELLAMLDSPMLGVRDDVTAVFKENLNSDRGPMLVNTLVDYYLETSSQPALHILTTLQEPHDKHLLDRINEYVGKAATRLSILSLLGHVIRLQPSWKHKLSQAPLLPSLLKCLKMDTDVVVLTTGVLVLITMLPMIPQSGKQHLLDFFDIFGRLSSWCLKKPGHVAEVYLVHLHASVYALFHRLYGMYPCNFVSFLRSHYSMKENLETFEEVVKPMMEHVRIHPELVTGSKDHELDPRRWKRLETHDVVIECAKISLDPTEASYEDGYSVSHQISARFPHRSADVTTSPYADTQNSYGCATSTPYSTSRLMLLNMPGQLPQTLSSPSTRLITEPPQATLWSPSMVCGMTTPPTSPGNVPPDLSHPYSKVFGTTAGGKGTPLGTPATSPPPAPLCHSDDYVHISLPQATVTPPRKEERMDSARPCLHRQHHLLNDRGSEEPPGSKGSVTLSDLPGFLGDLASEEDSIEKDKEEAAISRELSEITTAEAEPVVPRGGFDSPFYRDSLPGSQRKTHSAASSSQGASVNPEPLHSSLDKLGPDTPKQAFTPIDLPCGSADESPAGDRECQTSLETSIFTPSPCKIPPPTRVGFGSGQPPPYDHLFEVALPKTAHHFVIRKTEELLKKAKGNTEEDGVPSTSPMEVLDRLIQQGADAHSKELNKLPLPSKSVDWTHFGGSPPSDEIRTLRDQLLLLHNQLLYERFKRQQHALRNRRLLRKVIKAAALEEHNAAMKDQLKLQEKDIQMWKVSLQKEQARYNQLQEQRDTMVTKLHSQIRQLQHDREEFYNQSQELQTKLEDCRNMIAELRIELKKANNKVCHTELLLSQVSQKLSNSESVQQQMEFLNRQLLVLGEVNELYLEQLQNKHSDTTKEVEMMKAAYRKELEKNRSHVLQQTQRLDTSQKRILELESHLAKKDHLLLEQKKYLEDVKLQARGQLQAAESRYEAQKRITQVFELEILDLYGRLEKDGLLKKLEEEKAEAAEAAEERLDCCNDGCSDSMVGHNEEASGHNGETKTPRPSSARGSSGSRGGGGSSSSSSELSTPEKPPHQRAGPFSSRWETTMGEASASIPTTVGSLPSSKSFLGMKARELFRNKSESQCDEDGMTSSLSESLKTELGKDLGVEAKIPLNLDGPHPSPPTPDSVGQLHIMDYNETHHEHS

Variants of: B1
Settings: with tsc2_human TSC2, P49815
Chain of tsc2_human TSC2, P49815 (P49815 whole entry): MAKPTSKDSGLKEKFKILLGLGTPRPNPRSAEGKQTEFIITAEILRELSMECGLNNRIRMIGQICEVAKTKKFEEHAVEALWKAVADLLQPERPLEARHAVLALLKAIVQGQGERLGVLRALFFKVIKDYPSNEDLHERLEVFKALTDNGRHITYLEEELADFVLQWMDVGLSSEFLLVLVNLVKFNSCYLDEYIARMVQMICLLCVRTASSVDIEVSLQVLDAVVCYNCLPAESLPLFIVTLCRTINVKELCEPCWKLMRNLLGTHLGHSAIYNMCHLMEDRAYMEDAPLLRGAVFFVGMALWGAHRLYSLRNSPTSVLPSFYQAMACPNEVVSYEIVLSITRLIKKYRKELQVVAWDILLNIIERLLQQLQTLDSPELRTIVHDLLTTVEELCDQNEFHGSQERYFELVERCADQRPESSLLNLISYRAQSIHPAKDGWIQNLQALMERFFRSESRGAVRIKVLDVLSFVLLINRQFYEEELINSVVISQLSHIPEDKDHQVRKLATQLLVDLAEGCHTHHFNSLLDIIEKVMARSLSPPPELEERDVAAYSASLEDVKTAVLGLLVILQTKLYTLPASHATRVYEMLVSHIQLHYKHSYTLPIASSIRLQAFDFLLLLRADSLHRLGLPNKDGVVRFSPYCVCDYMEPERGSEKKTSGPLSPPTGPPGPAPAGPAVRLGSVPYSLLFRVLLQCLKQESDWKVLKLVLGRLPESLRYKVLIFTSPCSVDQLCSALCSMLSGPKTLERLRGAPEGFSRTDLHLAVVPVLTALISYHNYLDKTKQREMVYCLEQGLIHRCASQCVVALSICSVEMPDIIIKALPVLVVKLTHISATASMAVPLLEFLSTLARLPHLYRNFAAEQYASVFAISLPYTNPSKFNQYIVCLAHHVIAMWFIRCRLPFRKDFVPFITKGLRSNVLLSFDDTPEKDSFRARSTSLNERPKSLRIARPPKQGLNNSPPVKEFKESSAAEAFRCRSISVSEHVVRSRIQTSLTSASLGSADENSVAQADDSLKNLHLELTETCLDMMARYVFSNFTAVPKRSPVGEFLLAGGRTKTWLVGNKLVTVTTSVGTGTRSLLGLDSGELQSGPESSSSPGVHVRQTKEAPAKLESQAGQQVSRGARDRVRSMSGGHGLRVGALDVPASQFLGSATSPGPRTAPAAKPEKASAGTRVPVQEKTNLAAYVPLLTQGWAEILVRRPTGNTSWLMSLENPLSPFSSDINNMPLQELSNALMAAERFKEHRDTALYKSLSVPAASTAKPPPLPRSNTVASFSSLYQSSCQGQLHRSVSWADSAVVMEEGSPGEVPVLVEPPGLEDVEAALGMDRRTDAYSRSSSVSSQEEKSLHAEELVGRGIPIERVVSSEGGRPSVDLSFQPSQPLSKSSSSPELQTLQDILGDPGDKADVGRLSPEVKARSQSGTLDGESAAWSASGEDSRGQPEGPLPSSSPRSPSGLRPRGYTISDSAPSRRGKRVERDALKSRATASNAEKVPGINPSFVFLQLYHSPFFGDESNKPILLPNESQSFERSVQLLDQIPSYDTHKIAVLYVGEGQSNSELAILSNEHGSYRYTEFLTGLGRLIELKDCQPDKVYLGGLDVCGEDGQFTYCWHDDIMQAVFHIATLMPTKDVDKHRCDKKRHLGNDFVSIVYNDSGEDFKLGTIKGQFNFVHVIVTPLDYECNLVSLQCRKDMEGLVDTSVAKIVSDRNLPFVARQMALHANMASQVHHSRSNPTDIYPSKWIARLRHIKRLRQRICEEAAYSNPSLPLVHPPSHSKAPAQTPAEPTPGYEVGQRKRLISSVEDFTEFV

effect of a mutation on the interaction	Variant
decreasing interaction	S487D;S511D
